# Measurements as given in the supplement of paper PMC10567573.
# B1: C22orf15 (parent)
# chain: ITQSWQVSVRVQPRGRAHLLPNPY
# B2: TMEM40 (parent)
# chain: YGETDFHKQDGKAGLFSQEQYERN
# Variants of: B1
# Experiment: protein stability index of a GFP-peptide fusion (GPS, HEK-293T) (PSI 1-6); higher = more stable
# Settings: c terminus: a fixed tail appended
# 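Further: lentivirally expressed fusions sorted by FACS into six bins by GFP to DsRed ratio, PSI derived from sequencing read proportions per bin multiplied by bin number.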
row,Variant,protein stability index
1,ITQSWQVSVRVQPRGRAHLTPNPY [L20T],3.22
2,ITQSWQVSVRVQPRGRAHLAPNPY [L20A],1.91
3,ITQSWQVSVRVQPRGRAHLVPNPY [L20V],4.25
4,ITQSWQVSVRVQPRGRAHLIPNPY [L20I],2.29
5,ITQSWQVSVRVQPRGRAHLNPNPY [L20N],2.16
6,ITQSWQVSVRVQPRGRAHLHPNPY [L20H],1.51
7,ITQSWQVSVRVQPRGRAHLSPNPY [L20S],1.03
8,ITQSWQVSVRVQPRGRAHLRPNPY [L20R],1.7
9,ITQSWQVSVRVQPRGRAHLPPNPY [L20P],1.17
10,ITQSWQVSVRVQPRGRAHLYPNPY [L20Y],3.07
11,ITQSWQVSVRVQPRGRAHLCPNPY [L20C],1.97
12,ITQSWQVSVRVQPRGTAHLLPNPY [R16T],2.14
13,ITQSWQVSVRVQPRGCAHLLPNPY [R16C],4.64
14,ITQSWQVSVRVQPRGEAHLLPNPY [R16E],1.24
15,ITQSWQVSVRVQPRGWAHLLPNPY [R16W],2.89
16,ITQSWQVSVRVQPRGQAHLLPNPY [R16Q],1
17,ITQSWQVSVRVQPRGNAHLLPNPY [R16N],1.4
18,ITQSWQVSVRVQPRGDAHLLPNPY [R16D],2.88
19,ITQSWQVSVRVQPRGLAHLLPNPY [R16L],1.69
20,ITQSWQVSVRVQPRGIAHLLPNPY [R16I],2.26
21,ITQSWQVSVRVQPRGHAHLLPNPY [R16H],1.89
22,ITQSWQVSVRVQPRGFAHLLPNPY [R16F],3.25
23,ITQSWQVSVRVQPRGPAHLLPNPY [R16P],2.07
24,ITQSWQVSVRVQPRGVAHLLPNPY [R16V],1.24
25,ITQSWQVSVRVQPRGSAHLLPNPY [R16S],2.21

row,Variant,protein stability index
1,ITQSWQVSVRVQPRGYAHLLPNPY [R16Y],3.74
2,ITQSWQVSVRVQPRGRWHLLPNPY [A17W],2.46
3,ITQSWQVSVRVQPRGRNHLLPNPY [A17N],1.7
4,ITQSWQVSVRVQPRGRTHLLPNPY [A17T],2.28
5,ITQSWQVSVRVQPRGRKHLLPNPY [A17K],1.34
6,ITQSWQVSVRVQPRGRHHLLPNPY [A17H],3.03
7,ITQSWQVSVRVQPRGRDHLLPNPY [A17D],1.76
8,ITQSWQVSVRVQPRGRIHLLPNPY [A17I],2.96
9,ITQSWQVSVRVQPRGRSHLLPNPY [A17S],2.46
10,ITQSWQVSVRVQPRGRGHLLPNPY [A17G],3.81
11,ITQSWQVSVRVQPRGRPHLLPNPY [A17P],1.81
12,ITQSWQVSVRVQPRGRLHLLPNPY [A17L],2.42
13,ITQSWQVSVRVQPRGRQHLLPNPY [A17Q],1.68
14,ITQSWQVSVRVQPRGRCHLLPNPY [A17C],3.18
15,ITQSWQVSVRVQPRGRFHLLPNPY [A17F],1.1
16,ITQSWQVSVRVQPRGRYHLLPNPY [A17Y],3.21
17,ITQSWQVSVRVQPRGRVHLLPNPY [A17V],2.58
18,ITQSWQVSVRVQPRGRRHLLPNPY [A17R],1.66
19,ITQSWQVSVRVQPRGRMHLLPNPY [A17M],2.57
20,ITQSWQVSVRVQYRGRAHLLPNPY [P13Y],2.01
21,ITQSWQVSVRVQVRGRAHLLPNPY [P13V],3.02
22,ITQSWQVSVRVQPTGRAHLLPNPY [R14T],1.05
23,ITQSWQVSVRVQPQGRAHLLPNPY [R14Q],2.15
24,ITQSWQVSVRVQPYGRAHLLPNPY [R14Y],1.85
25,ITQSWQVSVRVQPNGRAHLLPNPY [R14N],1.98

row,Variant,protein stability index
1,ITQSWQVSVRVQPKGRAHLLPNPY [R14K],2.25
2,ITQSWQVSVRVQPAGRAHLLPNPY [R14A],3.37
3,ITQSWQVSVRVQPEGRAHLLPNPY [R14E],2.73
4,ITQSWQVSVRVQPFGRAHLLPNPY [R14F],1.78
5,ITQSWQVSVRVQPLGRAHLLPNPY [R14L],2.15
6,ITQSWQVSVRVQPHGRAHLLPNPY [R14H],2
7,ITQSWQVSVRVQPPGRAHLLPNPY [R14P],1.68
8,ITQSWQVSVRVQPIGRAHLLPNPY [R14I],1.54
9,ITQSWQVSVRVQPDGRAHLLPNPY [R14D],1.87
10,ITQSWQVSVRVQPRGRAHLLPNPQ [Y24Q],1.47
11,ITQSWQVSVRVQPRGRAHLLPNPS [Y24S],1.34
12,ITQSWQVSVRVQPRGRAHLLPNPT [Y24T],2.34
13,ITQSWQVSVRVQPRGRAHLLPNPA [Y24A],1.39
14,ITQSWQVSVRVQPRGRAHLLPNPN [Y24N],1.54
15,ITQSWQVSVRVQPRGRAHLLPNPP [Y24P],1.15
16,ITQSWQVSVRVQPRGRAHLLPNPR [Y24R],2.1
17,ITQSWQVSVRVQPRGRAHLLPNPK [Y24K],2.19
18,ITQSWQVSVRVQPRGRAHLLPNPF [Y24F],2.47
19,ITQSWQVSVRVQPRGRAHLLPNPD [Y24D],1.75
20,ITQSWQVSVRVQPRGRAHLLPNPH [Y24H],1.07
21,ITQSWQVSVRVQPRGRAHLLPNPI [Y24I],2.29
22,ITQSWQVSVRVQPRGRAHLLPNPC [Y24C],1.71
23,ITQSWQVSVRVQPRGRAHLLPNPW [Y24W],2.93

# Variants of: B2
# Experiment: as above
# Settings: c terminus: a fixed tail appended
row,Variant,protein stability index
1,DGETDFHKQDGKAGLFSQEQYERN [Y1D],4.92
2,NGETDFHKQDGKAGLFSQEQYERN [Y1N],4.77
3,TGETDFHKQDGKAGLFSQEQYERN [Y1T],5.14
4,MGETDFHKQDGKAGLFSQEQYERN [Y1M],4.38
5,WGETDFHKQDGKAGLFSQEQYERN [Y1W],4.37
6,HGETDFHKQDGKAGLFSQEQYERN [Y1H],4.38
7,QGETDFHKQDGKAGLFSQEQYERN [Y1Q],5.3
8,SGETDFHKQDGKAGLFSQEQYERN [Y1S],5.24
9,EGETDFHKQDGKAGLFSQEQYERN [Y1E],5.36
10,RGETDFHKQDGKAGLFSQEQYERN [Y1R],5.01
11,KGETDFHKQDGKAGLFSQEQYERN [Y1K],5.01
12,LGETDFHKQDGKAGLFSQEQYERN [Y1L],5.45
13,AGETDFHKQDGKAGLFSQEQYERN [Y1A],4.89
14,FGETDFHKQDGKAGLFSQEQYERN [Y1F],4.88
15,PGETDFHKQDGKAGLFSQEQYERN [Y1P],5.22
16,CGETDFHKQDGKAGLFSQEQYERN [Y1C],4.55
17,IGETDFHKQDGKAGLFSQEQYERN [Y1I],4.58
18,GGETDFHKQDGKAGLFSQEQYERN [Y1G],4.5
19,YAETDFHKQDGKAGLFSQEQYERN [G2A],3.49
20,YDETDFHKQDGKAGLFSQEQYERN [G2D],4.95
21,YCETDFHKQDGKAGLFSQEQYERN [G2C],3.42
